A short description of the data set: yeast display, Sf9 membrane polyspecificity reagent, FACS + sequencing; frameworks hold sequencing errors. An outline of the steps: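 Galactose induction of a Saccharomyces cerevisiae BJ5465 synthetic nanobody display library ran 36–48 hours. The cells were then stained for 1 hour at 4 °C with 10% biotinylated, detergent-solubilized Sf9 membrane reagent, pulled down on streptavidin microbeads and FACS-sorted into low and high (top ~1%) gates on expression and reagent-binding fluorescence. Labels for polyreactivity follow the gate of origin.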
For the sequence “QVQLVESGGGLVQAGGSLRLSCAASGSISGINAMGWYRQAPGKERELVAAISRRAGSTYYADSVKGRFTISRDNAKNTVYLQMNSLKPEDTAVYYCAAENFYPYTYYASDYWGQGTQVTVSS”, the “polyreactivity (PSR sort gate)” value is given as “high polyreactivity”.
In the case of “QVQLVESGGGLVQAGGSLRLSCAASGSISGIYAMGWYRQAPGKERELVAAISRGGSTNYADSVKGRFTISRDNAKNTVYLQMNSLKPEDTAVYYCAARTAYYPYRQRYYYWGQGTQVTVSS” it was “high polyreactivity”; in that of “QVQLVESGGGLVQAGGSLRLSCAASGSISGSYAMGWYRQAPGKERELVASITTSGGGTYYADSVKGRFTISRDNAKNTVYLQMNSLKPEDTAVFYCAVEYGYPYAGLDYWGQGTQVTVSS”, “low polyreactivity”.
As for “QVQLVESGGGLVQAGGSLRLSCAASGSISGYNAMGWYRQAPGQERELVAAIYRSDGTDYADSVKGRFTISRDNAKNTVYLQMNSLNPEDTAVYYCNADKWSVVGYVRGFYRDDYWGQGTQVTVSS”, the “polyreactivity (PSR sort gate)” value is recorded as “low polyreactivity”.
“QVQLVESGGGLVQAGGSLRLSCAASGSISGYYAMGGYRQAPGKERELVASIRYTGARTYYADSVKGRFTISRDNAKNTVYLQMNSLKPEDTAVYYCAADVKRDRVWGGDYWGQGTQVTVSS”: the “polyreactivity (PSR sort gate)” value is on record as “low polyreactivity”.
“QVQLVESGGGLVQAGGSLRLSCAASGSISGYYAMGWYSQAPVKERELVASIRYTGARTYYADSVKGRFTISRDNAQNTVYLQMNSLKPEDTAVYYCAADVKRDRVWGGDYWGQGTQVTVSS”: the “polyreactivity (PSR sort gate)” value is recorded as “low polyreactivity”.
With “QVQLVESGGGLVQAGGSLRLSCAASGSISKINAMGWYRQAPGKERELVAAINTGDSTYYADSVKGRFTISRDNAKNTVYLKMNSLKPVDSAVYYCAAEGSPTGYDYWGQGTQVTVTS”, the “polyreactivity (PSR sort gate)” value is recorded as “low polyreactivity”.
“QVQLVESGGGLVQAGGSLRLSCAASGSISLVYAMGWYRQATGKERELVAVINHADDTSYADSVKGRFTISRDNAKNTVYLQMNSLKPEDTADYYCAAESSYFVALTQFYTVEFYYWGQGTQLTVSS”: the “polyreactivity (PSR sort gate)” value is recorded as “low polyreactivity”.
Regarding “QVQLVESGGGLVQAGGSLRLSCAASGSISNQYVMGWYRQAPGKERELVAAIRVIGGSTSYADSVKGRFTISRDNAKNTVYLQMNSLKPEDTAVYYCAADWAWTISDGYYYGYPQYDYWGQGTQVTVSS”, the “polyreactivity (PSR sort gate)” value is reported as “high polyreactivity”.
The same measure for “QVQLVESGGGLVQAGGSLRLSCAASGSISPANTMGWYRQAPGKEREFVAGISRRGGRTYYADSVKGRFTISRDNAKNTVYLQMNSLIPEDTAVYYCATALIVRGPSRYEYWGQGTQVTVSS”: “high polyreactivity”.
In the case of “QVQLVESGGGLVQAGGSLRLSCAASGSISPQNVMGWYRQAPGKERELVAAITGGGSTNYADSVKGRFTISRDNAKNTVYLQMNSLKPEDTAVYYCAVYRRYLPYDYWGQGTQVTVSS” it was “low polyreactivity”; in that of “QVQLVESGGGLVQAGGSLRLSCAASGSISRVYTMGWYRQAPGKQRELVAVIRRSSGSTYYADSLKGRFTISRDNAKNTVYFQMNSLKPEDTAVYYCAARGYYSGQTTIGMDYWGQGTQVTVSS”, “low polyreactivity”.
The same measure for “QVQLVESGGGLVQAGGSLRLSCAASGSISSVYGMGWYRQAPGKERELVAAITSNGGSTYYADSVKGRFTISRDNAKNTVYLQMNSMKPEDTAVYYCAAKYGSRGYYSRGRYYWGQGTQVTVSS”: “high polyreactivity”.
As for “QVQLVESGGGLVQAGGSLRLSCAASGSISSYAMGWSRQAPGKERELVASITWHGGGTYYADSVKGRFTISRDNAKNTVYLQMNSLKPEDTAVYYCAKDNYLDPPYFYRFAGYDYCGQGTQVTVSS”, the “polyreactivity (PSR sort gate)” value is on record as “low polyreactivity”.
In the case of “QVQLVESGGGLVQAGGSLRLSCAASGSISTYYAMGWYRPAPGKERDLVAAISKSGGSKYYADSVKGRFTISRDNAKNTVYLQMNSLKPEDTAVYYCAARYKGRAFWMDYWGQGTQVTVSS” it was “high polyreactivity”.
The same measure for “QVQLVESGGGLVQAGGSLRLSCAASGSISVANAMGWYRQAPGKERELVAGITSSGSTYYADSVKGRFTISRDNAKNTVYLQMNSLKPEDTAVYYCNADVHYSTFYTVVVSLYYWGQGSQVTVSS”: “low polyreactivity”.
In the case of “QVQLVESGGGLVQAGGSLRLSCAASGSISVVNMGWYRQAPGKERELVASITSSGSTTYADSVKGRFTISRDNAKNTVYLQMNSLKPEDTAVYYCAADVGTDYTYQHPAGAAYDYWGQGTQVTVSS”, the “polyreactivity (PSR sort gate)” value is listed as “low polyreactivity”.
Regarding “QVQLVESGGGLVQAGGSLRLSCAASGSISVYNAMGWYRQAPGKERELVAAISWSGGRTSYADSVKGRFTISRDNAKITVYLQMNSLKPEDTALYYCAADELTVLWDEDYWGQGTQVTVSS”, the “polyreactivity (PSR sort gate)” value is “low polyreactivity”.
In the case of “QVQLVESGGGLVQAGGSLRLSCAASGSISVYYAMGRYRQAPGKERELVASIRYTGGRTYYADSVKGRFTISRDNAKNTVYLQMNSLKPEDTAVYYCAADVKRDRVWGGDYWGHGTQVTVSS” it was “low polyreactivity”; in that of “QVQLVESGGGLVQAGGSLRLSCAASGSISWYYAMGWYRQAPGKERELVAAISDSGGDTYYADSVKGRFTISRDNAKNTVYLQMNSLKPEDTAVYYCAAQYRGSYRTTYDYWGQGTQVTVSS”, “low polyreactivity”; in that of “QVQLVESGGGLVQAGGSLRLSCAASGSISYLYAMGWYRQAPGKERELVAAISRSGASTYYADSVKGRFTISRDNAKNTVYLQMNSLKPEDTAVYYCAAYKIWGRVRYDYWGQGTQVTVSS”, “low polyreactivity”.
On to “QVQLVESGGGLVQAGGSLRLSCAASGSISYQNAMGWYRQATGKERELVAAISGDGDSMYYADSVKGRFTISRDNAKNTVYLQMNSLKPEDTAVYYCAAEPNVYFSVFVLFPSDYWGQGTQVTVSS”, for which the “polyreactivity (PSR sort gate)” value is given as “low polyreactivity”.
The same measure for “QVQLVESGGGLVQAGGSLRLSCAASGSISYRYAMGWYRQAPGKERELVAGISRSGGSTSYADSVKGRFTISRDNAKNTVYLQMNSLKPEDTAVYYCNRPSSLAWPWTGSFSRYDYWGQGTQVTVSS”: “low polyreactivity”.
In the case of “QVQLVESGGGLVQAGGSLRLSCAASGSISYVNAMGWYRQAPGKERELVAAITGGGSTNYADSVKGRFTISRDNAKNTVYLQMNSLKPEDTAVYYCNSGDSTGEVIGDYWGQGTQVTVSS” it was “low polyreactivity”; in that of “QVQLVESGGGLVQAGGSLRLSCAASGSISYYAMGWYRQAPGKERELVAAISSSGGSTYYADSVKGRFTISRDNAKNTVYLQMNSLKPEDTAVYYCAAYGRYGAHTGYGSWGQGTQVTVSS”, “high polyreactivity”.
In the case of “QVQLVESGGGLVQAGGSLRLSCAASGSIVIINTMGWYRQAPGKERELVAAISWGGTDTNYADSVKGRFTISRDNAKNTVYVQMNSLKPEDTAVYYCNTDQDLVRSYDYWGQGTQVTVSS” it was “low polyreactivity”.
Consider “QVQLVESGGGLVQAGGSLRLSCAASGSIVTANAMAWYRPAPGKERELVAAITTSGTSTYYADSVKGRFTLSRDNAKNTVYLQMNSLKPEDTSVYYCNADKFYRAGSELDYWGQGTQVTVSS”, for which the “polyreactivity (PSR sort gate)” value is “high polyreactivity”.
In the case of “QVQLVESGGGLVQAGGSLRLSCAASGSIVVKYDMSWYRQAPGKERELVAAISGSGGSTYYADSVKGRFTISRDNAKNTVYLQMNSVKPEDTAVYYCAADDYFYSGRYGFEYWGQGTQVTVSS” it was “low polyreactivity”; in that of “QVQLVESGGGLVQAGGSLRLSCAASGSIVVNNGMGWYRQAPGKERELVATISERGGGTYYADSVKGRFTISRDNAKNTVYLQMNSLKPEDTAVYYCAARVPRFYFVPLYYWGQGTQVTVSS”, “low polyreactivity”.
For the sequence “QVQLVESGGGLVQAGGSLRLSCAASGSIVWYNAMGWYRPAPGKERELVAAITWSGGSTYYADSVKGRFTISRDNAKNTVYLQMNSLKPEDTAVYYCAADVKRDRVWGGDYWGQGTQVTVSS”, the “polyreactivity (PSR sort gate)” value is on record as “low polyreactivity”.
In the case of “QVQLVESGGGLVQAGGSLRLSCAASGSIYNRYAMGSYRQAPRQERELVAAITQSTDSTYYADSVKGRITISRDNAMITVYLQMNSLKPEDTAVYYCAAYLVYYRPYAYGYWGQGTQVTVSS” it was “low polyreactivity”; in that of “QVQLVESGGGLVQAGGSLRLSCAASGSIYPNAMGWNRQAPGKERELVAAIRRSSGSTYADSVKGRFTISRDNAKNTVYLQMNSLKPEDTAVYYCAAEWFAQPVGYDYWGQGTQVTVSS”, “high polyreactivity”; in that of “QVQLVESGGGLVQAGGSLRLSCAASGSIYPYNAIGLYRQAPGKERELVAAISYRGGRTYYADSVMGRFTISRDNAKNTVYLQKNSLKPEDTAVYYCNADSIYSARGWLYGYWGQGTQVTVSS”, “low polyreactivity”.
“QVQLVESGGGLVQAGGSLRLSCAASGSIYRYAMGWYRQAPGKERELVAAINFNGGRTYYADSVKGRFTISRDNAKNTVYLQMNSLKPEDTAVYYCAAVRSSNQGGFDYWGHGTQVTVSS”: the “polyreactivity (PSR sort gate)” value is given as “high polyreactivity”.
In the case of “QVQLVESGGGLVQAGGSLRLSCAASGSIYTHNAMGWSRQAPGKERELVAAISSGGSTNYADSVKGRFTISRDNAKNTVYLQMNSLKPEDTAVYYCAKSIDGWYWRRRRYDYWGQGTQVTVSS” it was “low polyreactivity”.
“QVQLVESGGGLVQAGGSLRLSCAASGSIYTNAMGRYRQAPGKERELVAAISWSGGRTYYADSVKGRFTISRDNAKNTVYLQMNILKPEDTAVYYCNTRGTRIASGHYYWGQGNQVTVSS”: the “polyreactivity (PSR sort gate)” value was “high polyreactivity”.
The same measure for “QVQLVESGGGLVQAGGSLRLSCAASGSIYTNAMGWYRQAPGKERELVAAISWSGGRTYYADSVKGRFTISRDNAKNTVYLQMNSLKPEDTAVYYCNTRGTRIASGHYYWGQGTQVTVSS”: “high polyreactivity”; for “QVQLVESGGGLVQAGGSLRLSCAASGSIYTWYAMVWYRQAPGKERELVAAITRGGSTYADSVKGRFTISRDNAKNTVFLQMNSLKPEDTAVYYCATDLQPRSFLYWYNYWGQGTQVTVSS”: “low polyreactivity”.
As to “QVQLVESGGGLVQAGGSLRLSCAASGSIYVYYGMGWYRQAPGKERELVAAISSGGSTHYADSVKGRFTISRDNAKNTVYLQMNSLKPEDTAVYYCAADRFFWLRSYPRYYYWGQGTQVTVSS”, the “polyreactivity (PSR sort gate)” value was “low polyreactivity”.
As to “QVQLVESGGGLVQAGGSLRLSCAASGSIYWINTSMGWYIQAPGKERELVAAITWSSGGTYYADSVKGRFTISRDNAKKTVYLQMNSLKPEDTAVYYCAKVRFFWYRMGYWGQGTQVTVSS”, the “polyreactivity (PSR sort gate)” value is on record as “high polyreactivity”.

Source of the values: the nanobody polyreactivity screen of Harvey et al. (2022).
